The record followed here is patent US20050042747A1, “Hivgp120-induced bob/gpr15 activation” (priority 2001, published 2005).

The labels stand for the following.
B1: MIP-1α: natural ligand of CCR5 (protein, UniProt P10147 24-92, looked up)
C-C motif chemokine 3: SLAADTPTACCFSYTSRQIPQNFIADYFETSSQCSKPGVIFLTKRSRQVCADPSEEWVQKYVSDLELSA
B2: RANTES: natural ligand of CCR5 (protein, UniProt P13501 24-91, looked up)
C-C motif chemokine 5: SPYSSDTTPCCFAYIARPLPRAHIKEYFYTSGKCSNPAVVFVTRKNRQVCANPEKKWVREYINSLEMS
B3: MIP-1β: natural ligand of CCR5 (protein, UniProt P13236 24-92, looked up)
C-C motif chemokine 4: APMGSDPPTACCFSYTARKLPRNFVVDYYETSSLCSQPAVVFQTKRSKQVCADPSESWVQEYVYDLELN
modifications: ends and bridges not checked
notes: natural ligand of CCR5

The subject of the assay is HT-29 cells. Nature of the assay: Calcium signaling in HT-29 cells (Fluo 4, confocal microscope). The format is cell-based, human. Here is the method: HT-29 cells (from ATCC) were grown in DMEM-F12 with 10% bovine calf serum, and were used 24-48 hours after plating. The Ghost (3) cells were obtained from the AIDS Research and Reference Reagent Program, and were grown DMEM with 10% bovine calf serum supplemented with 500 μg/ml G418, 100 μg/ml hygromycin, and 1 μg/ml puromycin.^27 These cells were used 24 to 96 hours after plating.
Calcium studies were done on HT-29 cells and Ghost (3) cells loaded with Fluo 4. The cells were placed in Locke's buffer containing 5 μg/ml Fluo 4 AM ester (Molecular Probes) for 20 to 30 minutes, then in Locke's buffer for an additional 30 minutes before testing. Various concentrations of gp120IIIB (X4 trophic), gp120CM235 (R5 trophic), gp120mN (X4 trophic), gp12093TH975 (nonsyncytium-inducing primary isolate from an asymptomatic subject, trophism undetermined but likely R5), and gp120SF2 (X4R5 trophic), ranging from 10 nM to less than 1 pM, were added in Locke's buffer.^6 The gp120 proteins were obtained from the AIDS Research Reagent Referral Program. Some HT-29 cells were given one of the following pretreatments: 50 μg/ml anti-Bob37 overnight, 1 μg/ml pertussis toxin overnight, or 4.6 μg/ml U73122 for one hour. With the HT-29 cells only, similar tests were also performed with SDF-1, MIP-1α, MIP-1β, and RANTES rather than gp120. The cells were visualized every 4 seconds in a confocal microscope, using 488 nm argon laser excitation and detection filters appropriate for fluorescein-like dyes.
For the first two or three days after plating, gp120 induces an immediate (within 4 seconds) calcium flux in undifferentiated HT-29 cells. The cells had previously been loaded with Fluo-4 AM ester (Molecular Probes, Eugene Oreg.) 5 micrograms/ml in the presence of Pleuronic F-127 0.02% in Locke's buffer for 30 minutes, then incubated at room temperature for an additional 30 minutes. Gp120IIIB was added while the cells were on an inverted confocal microscope using a 488 nm argon laser, with detection filters suitable for fluorescein-like dyes. […]
With B1, the “calcium signaling in HT-29 cells, in words” value is on record as “induced similar calcium signaling”. The same measure for B2: “induced similar calcium signaling”; for B3: “induced similar calcium signaling”.
